# Results as given in patent US20190167709A1.
# Target: CD20 (B-cell surface antigen CD20 on human Burkitt's B-cell non-Hodgkin's lymphoma Raji cells) (human) (UniProt P11836)
# Assay: cell-based or functional assay
# Chain of UniProt P11836 (P11836 whole entry): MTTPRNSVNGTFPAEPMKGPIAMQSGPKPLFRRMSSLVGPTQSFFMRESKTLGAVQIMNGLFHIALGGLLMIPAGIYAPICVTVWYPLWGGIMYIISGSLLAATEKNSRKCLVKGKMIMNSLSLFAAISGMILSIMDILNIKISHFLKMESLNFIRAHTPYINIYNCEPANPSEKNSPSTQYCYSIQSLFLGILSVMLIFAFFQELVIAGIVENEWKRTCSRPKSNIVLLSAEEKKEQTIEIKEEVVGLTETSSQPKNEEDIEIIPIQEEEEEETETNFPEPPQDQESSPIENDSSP
substance,measurement,value
Fab′-MORF1 conjugate (Fab′ fragment of the mouse anti-human CD20 IgG2a mAb 1F5 tethered to the 3′ end of morpholino MORF1 via a thioether bond),"apoptosis induction, fold over untreated, Raji B-cells; 5 µM Fab′-MORF1 + P-MORF2/v3 (fold compared to untreated)",7
same,"apoptosis of Raji B-cells, P-MORF2/v10 against P-MORF2/v3 (0.5 µM Fab′, MORF1:MORF2 = 1:1 or 1:10) (fold against P-MORF2/v3)",2
same,"apoptotic cells, annexin V/PI staining, Raji B-cells; 1 µM Fab′-MORF1 and equimolar P-MORF2/v3",40%
same,"apoptotic cells, fold over untreated, annexin V/PI staining, Raji B-cells; 1 µM Fab′-MORF1 and equimolar P-MORF2/v3 (fold compared to untreated)",> 4
same,"apoptotic index (%), Annexin V/PI binding assay, Raji B-cells, 48 h; consecutive Fab′-MORF1 then Copolymer-MORF2, 0.5 µM, valence = 10, MORF1:MORF2 1:1",50%
same,"apoptotic index (%), Annexin V/PI binding assay, Raji B-cells, 48 h; consecutive Fab′-MORF1 then Copolymer-MORF2, 1 µM, valence = 3, MORF1:MORF2 1:1",37%
